Measured values taken from paper PMC11106421, “Myosin VI in the nucleolus of neurosecretory PC12 cells: its involvement in the maintenance of nucleolar structure and ribosome organization” (Frontiers in Physiology, 2024).

B1: UBF (upstream binding factor) (natural protein, rat (endogenous in PC12), UniProt P25977 1-764, looked up)
chain: MNGEADCPTDLEMAAPKGQDRWSQEDMLTLLECMKNNLPSNDSSKFKTTESHMDWEKVAFKDFSGDMCKLKWVEISNEVRKFRTLTELILDAQEHVKNPYKGKKLKKHPDFPKKPLTPYFRFFMEKRAKYAKLHPEMSNLDLTKILSKKYKELPEKKKMKYIQDFQREKQEFERNLARFREDHPDLIQNAKKSDIPEKPKTPQQLWYTHEKKVYLKVRPDATTKEVKDSLGKQWSQLSDKKRLKWIHKALEQRKEYEEIMRDYIQKHPELNISEEGITKSTLTKAERQLKDKFDGRPTKPPPNSYSLYCAELMANMKDVPSTERMVLCSQQWKLLSQKEKDAYHKKCDQKKKDYEVELLRFLESLPEEEQQRVLGEEKMLNINKKQTTSPASKKPSQEGGKGGSEKPKRPVSAMFIFSEEKRRQLQEERPELSESELTRLLARMWNDLSEKKKAKYKAREAALKAQSERKPGGEREDRGKLPESPKRAEEIWQQSVIGDYLARFKNDRVKALKAMEMTWNNMEKKEKLMWIKKAAEDQKRYERELSEMRAPPAATNSSKKMKFQGEPKKPPMNGYQKFSQELLSNGELNHLPLKERMVEIGSRWQRISQSQKEHYKKLAEEQQRQYKVHLDLWVKSLSPQDRAAYKEYISNKRKNMTKLRGPNPKSSRTTLQSKSESEEDDDEEDDDDDDEEEEEDDENGDSSEDGGDSSESSSEDESEDGDENEDDDDDEDDDEDDDEDEDNESEGSSSSSSSSGDSSDSDSN
notes: source: endogenous, PC12 cells (lysate or fixed cells)
B2: B23 (also termed nucleophosmin, NPM1) (natural protein, rat (endogenous in PC12), UniProt P13084 1-292, looked up)
chain: MEDSMDMDMSPLRPQNYLFGCELKADKDYHFKVDNDENEHQLSLRTVSLGAGAKDELHIVEAEAMNYEGSPIKVTLATLKMSVQPTVSLGGFEITPPVVLRLKCGSGPVHISGQHLVAVEEDAESEDEDEEDVKLLGMSGKRSAPGGGNKVPQKKVKLDEDDDEDDEDDEDDEDDDDDDFDEEETEEKVPVKKSVRDTPAKNAQKSNQNGKDLKPSTPRSKGQESFKKQEKTPKTPKGPSSVEDIKAKMQASIEKGGSLPKVEAKFINYVKNCFRMTDQEAIQDLWQWRKSL
notes: B23 / nucleophosmin, endogenous in PC12 cells, detected with a mouse monoclonal anti-B23 antibody; source: endogenous, PC12 cells (lysate or fixed cells)
B3: fibrillarin (natural protein, rat (endogenous in PC12), UniProt P22509 1-327, looked up)
chain: MKPGFSPRGGGFGGRGGFGDRGGRGGGRGGRGGFGGGRGGFGGGGRGRGGGGGGFRGRGGGGGRGGGFQSGGGRGRGGGRGGKRGNQSGKNVMVEPHRHEGVFICRGKEDALVTKNLVPGESVYGEKRVSISEGDDKIEYRAWNPFRSKLAAAILGGVDQIHIKPGAKVLYLGAASGTTVSHVSDIVGPDGLVYAVEFSHRSGRDLINLAKKRTNIIPVIEDARHPHKYRMLIAMVDVIFADVAQPDQTRIVALNAHTFLRNGGHFVISIKANCIDSTASAEAVFASEVKKMQQENMKPQEQLTLEPYERDHAVVVGVYRPPPKAKN
notes: fibrillarin, endogenous in PC12 cells, detected with a mouse monoclonal anti-fibrillarin antibody; source: endogenous, PC12 cells (lysate or fixed cells)

Target: T1, myosin VI (MVI), endogenous in PC12 cells (rat (endogenous in PC12), UniProt D4A5I9 1-1285)
T1 construct: myosin VI heavy chain, endogenous in PC12 cells; also called unconventional myosin VI; source: endogenous, PC12 cells (lysate or fixed cells)
Experiment: proximity ligation; Duolink in situ PLA on fixed PC12 cells, rabbit anti-MVI with mouse monoclonal antibodies to the partner; foci counted per nucleus
Conditions: partners not purified

T1 sequence (D4A5I9 entry or part of it): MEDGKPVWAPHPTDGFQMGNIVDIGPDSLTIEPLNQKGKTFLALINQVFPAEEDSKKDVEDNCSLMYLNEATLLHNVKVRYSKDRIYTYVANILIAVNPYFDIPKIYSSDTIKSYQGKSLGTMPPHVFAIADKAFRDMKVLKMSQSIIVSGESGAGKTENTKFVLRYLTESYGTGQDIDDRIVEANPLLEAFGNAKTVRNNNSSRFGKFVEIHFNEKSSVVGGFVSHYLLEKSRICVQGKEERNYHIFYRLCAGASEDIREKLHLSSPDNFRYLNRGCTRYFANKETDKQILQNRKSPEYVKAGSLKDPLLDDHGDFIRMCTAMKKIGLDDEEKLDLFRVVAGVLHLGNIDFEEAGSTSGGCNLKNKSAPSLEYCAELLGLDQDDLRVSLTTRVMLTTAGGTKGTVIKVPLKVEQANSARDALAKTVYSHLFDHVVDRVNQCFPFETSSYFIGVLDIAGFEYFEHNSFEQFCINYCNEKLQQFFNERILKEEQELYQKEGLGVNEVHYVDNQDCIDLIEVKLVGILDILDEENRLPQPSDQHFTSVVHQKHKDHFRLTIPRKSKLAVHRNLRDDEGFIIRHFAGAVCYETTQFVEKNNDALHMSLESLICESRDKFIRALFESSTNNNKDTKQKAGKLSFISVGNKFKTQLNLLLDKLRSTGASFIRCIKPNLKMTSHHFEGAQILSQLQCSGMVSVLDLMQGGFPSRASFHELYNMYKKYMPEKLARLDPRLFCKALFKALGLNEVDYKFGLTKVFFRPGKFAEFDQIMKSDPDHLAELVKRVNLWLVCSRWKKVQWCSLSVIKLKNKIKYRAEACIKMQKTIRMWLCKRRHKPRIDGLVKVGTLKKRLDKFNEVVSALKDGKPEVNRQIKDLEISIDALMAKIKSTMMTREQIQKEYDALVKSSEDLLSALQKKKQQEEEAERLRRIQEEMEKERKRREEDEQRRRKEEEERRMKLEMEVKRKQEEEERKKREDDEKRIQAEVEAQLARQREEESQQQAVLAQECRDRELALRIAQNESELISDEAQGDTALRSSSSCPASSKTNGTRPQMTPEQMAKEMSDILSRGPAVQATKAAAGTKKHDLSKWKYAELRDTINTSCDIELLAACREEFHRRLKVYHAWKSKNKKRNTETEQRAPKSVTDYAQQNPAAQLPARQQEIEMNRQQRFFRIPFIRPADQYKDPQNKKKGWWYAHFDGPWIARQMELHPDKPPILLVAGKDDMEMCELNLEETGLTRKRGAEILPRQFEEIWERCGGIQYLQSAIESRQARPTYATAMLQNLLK

Binder | fraction of PLA foci-positive nuclei [%]
B1 | ~36
B2 | ~57
B3 | ~65
